T1: human MerTK (human, UniProt Q12866 21-999)
T1 construct: endogenous receptor on cells; also called human MerTK endogenously expressed on SK-MEL-5 cells; MerTK on human macrophages
T1 sequence: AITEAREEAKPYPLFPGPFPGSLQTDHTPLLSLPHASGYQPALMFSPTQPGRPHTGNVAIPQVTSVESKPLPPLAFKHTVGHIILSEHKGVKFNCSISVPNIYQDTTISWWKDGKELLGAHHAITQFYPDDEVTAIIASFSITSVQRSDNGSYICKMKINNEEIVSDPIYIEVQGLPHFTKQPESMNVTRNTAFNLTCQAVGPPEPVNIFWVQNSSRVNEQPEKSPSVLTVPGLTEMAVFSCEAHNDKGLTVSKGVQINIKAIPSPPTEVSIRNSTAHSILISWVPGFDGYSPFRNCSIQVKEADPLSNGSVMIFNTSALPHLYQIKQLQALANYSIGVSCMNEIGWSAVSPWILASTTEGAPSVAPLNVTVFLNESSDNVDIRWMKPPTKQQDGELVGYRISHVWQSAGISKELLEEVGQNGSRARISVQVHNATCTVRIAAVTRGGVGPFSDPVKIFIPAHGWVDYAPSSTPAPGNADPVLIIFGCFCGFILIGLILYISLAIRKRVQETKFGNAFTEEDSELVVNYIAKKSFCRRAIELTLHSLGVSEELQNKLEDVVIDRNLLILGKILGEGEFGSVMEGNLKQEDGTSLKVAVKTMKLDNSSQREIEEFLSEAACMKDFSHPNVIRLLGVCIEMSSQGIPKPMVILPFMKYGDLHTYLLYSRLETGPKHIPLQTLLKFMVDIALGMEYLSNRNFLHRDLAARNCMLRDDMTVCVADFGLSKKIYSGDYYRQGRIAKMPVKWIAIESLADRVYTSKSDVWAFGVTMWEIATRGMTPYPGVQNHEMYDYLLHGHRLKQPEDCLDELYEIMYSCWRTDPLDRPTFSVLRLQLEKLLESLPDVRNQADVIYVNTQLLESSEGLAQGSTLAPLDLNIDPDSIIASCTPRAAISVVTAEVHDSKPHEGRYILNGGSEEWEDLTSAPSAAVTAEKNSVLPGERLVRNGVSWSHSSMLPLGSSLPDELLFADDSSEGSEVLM

T2: endogenous murine MerTK on bone marrow-derived macrophages (mouse, UniProt Q60805 19-994)
T2 construct: whole, on cells; MFI on MerTK KO BMDM subtracted; also called BMDM WT-KO
T2 sequence (looked up): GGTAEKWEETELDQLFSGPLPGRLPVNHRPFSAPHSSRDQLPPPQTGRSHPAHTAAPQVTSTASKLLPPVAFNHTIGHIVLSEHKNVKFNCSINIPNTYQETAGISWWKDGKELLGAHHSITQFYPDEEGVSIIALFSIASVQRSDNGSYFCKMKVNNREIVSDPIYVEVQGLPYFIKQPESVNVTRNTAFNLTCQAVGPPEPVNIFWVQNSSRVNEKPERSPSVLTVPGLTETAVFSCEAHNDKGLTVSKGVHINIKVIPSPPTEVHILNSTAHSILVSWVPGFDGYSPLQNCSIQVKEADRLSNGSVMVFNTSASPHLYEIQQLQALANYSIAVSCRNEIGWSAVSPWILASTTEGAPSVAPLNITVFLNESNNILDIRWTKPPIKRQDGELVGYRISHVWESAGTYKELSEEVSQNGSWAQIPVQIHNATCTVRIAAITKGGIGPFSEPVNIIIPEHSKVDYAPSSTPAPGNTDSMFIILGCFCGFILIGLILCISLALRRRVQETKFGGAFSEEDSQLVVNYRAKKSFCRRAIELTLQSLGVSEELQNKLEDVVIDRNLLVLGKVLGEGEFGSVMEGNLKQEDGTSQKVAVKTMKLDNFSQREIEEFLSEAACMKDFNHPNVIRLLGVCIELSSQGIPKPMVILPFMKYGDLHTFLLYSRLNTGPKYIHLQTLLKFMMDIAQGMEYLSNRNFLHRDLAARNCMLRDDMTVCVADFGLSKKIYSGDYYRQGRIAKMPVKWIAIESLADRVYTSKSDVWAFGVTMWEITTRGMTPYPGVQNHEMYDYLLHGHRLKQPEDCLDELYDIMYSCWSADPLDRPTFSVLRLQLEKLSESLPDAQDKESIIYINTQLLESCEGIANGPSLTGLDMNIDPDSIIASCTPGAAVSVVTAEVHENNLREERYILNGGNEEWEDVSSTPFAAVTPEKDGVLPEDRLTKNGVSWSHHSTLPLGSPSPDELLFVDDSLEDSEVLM

T3: mouse MerTK overexpressed on CHO cells (mouse, UniProt Q60805 19-994)
T3 construct: whole, on cells; also called CHO-muMerTK OE
T3 sequence (looked up): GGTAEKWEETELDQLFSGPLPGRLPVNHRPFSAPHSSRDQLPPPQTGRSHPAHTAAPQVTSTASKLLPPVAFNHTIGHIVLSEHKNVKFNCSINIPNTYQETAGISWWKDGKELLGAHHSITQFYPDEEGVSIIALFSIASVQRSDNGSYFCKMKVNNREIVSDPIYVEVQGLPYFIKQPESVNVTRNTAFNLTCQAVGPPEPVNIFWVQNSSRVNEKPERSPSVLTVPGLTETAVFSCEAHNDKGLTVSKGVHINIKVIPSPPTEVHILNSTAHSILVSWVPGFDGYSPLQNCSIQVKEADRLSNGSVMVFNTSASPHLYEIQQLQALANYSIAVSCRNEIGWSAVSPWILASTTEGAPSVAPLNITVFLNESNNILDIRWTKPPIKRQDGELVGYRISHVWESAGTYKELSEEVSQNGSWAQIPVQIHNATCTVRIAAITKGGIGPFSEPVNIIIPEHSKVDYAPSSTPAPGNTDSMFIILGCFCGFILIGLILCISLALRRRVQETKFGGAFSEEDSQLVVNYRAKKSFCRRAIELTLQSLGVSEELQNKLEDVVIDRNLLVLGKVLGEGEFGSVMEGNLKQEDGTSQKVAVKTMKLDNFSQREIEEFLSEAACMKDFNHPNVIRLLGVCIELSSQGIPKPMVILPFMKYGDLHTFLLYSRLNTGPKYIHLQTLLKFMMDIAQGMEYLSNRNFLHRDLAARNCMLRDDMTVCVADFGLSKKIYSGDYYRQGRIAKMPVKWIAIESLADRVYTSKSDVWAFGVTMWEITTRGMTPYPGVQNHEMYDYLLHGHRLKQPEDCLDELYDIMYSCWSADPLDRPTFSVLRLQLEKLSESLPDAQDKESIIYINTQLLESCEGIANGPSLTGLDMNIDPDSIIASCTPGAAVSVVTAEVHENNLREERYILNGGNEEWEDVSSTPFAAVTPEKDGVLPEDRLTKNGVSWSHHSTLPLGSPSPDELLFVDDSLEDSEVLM


How the values were obtained:
human MerTK = target: T1, human MerTK; test: FACS, SK-MEL-5 cells, 10 ug/ml
Protocol: (§1) To determine whether recombinant anti-human MerTK antibodies of the present disclosure bind to human MerTK endogenously expressed on SK-MEL-5 cells and CHO cells overexpressing mouse MerTK (CHO-muMerTK OE cells), as compared to A375 and parental CHO cells as negative controls, the following experiments were performed. SK-MEL-5 cells, A375 cells, CHO-muMerTK OE cells, and CHO parental cells were plated at 100,000 cells/well. Anti-MerTK antibodies were added to the cells at 10 μg/ml. After 60 minutes on ice, cells were washed and then stained with PE-conjugated goat anti-human IgG antibody (Southern Biotech Cat #2040-09, Birmingham, AL) in the presence of Fc block solution on ice for 30 minutes, and then washed twice with cold FACS buffer (2% FBS in PBS). Mouse anti-human MerTK-PE conjugated (Biolegend, Clone 590H11G1E3) or anti-mouse MerTK-PE conjugated (ThermoFisher, Clone DS5MMER) antibodies were used as positive controls. Stained cells were acquired on a BD FACS Canto II cytometer and the mean fluorescence intensity (MFI) was calculated with FlowJo.

[1] = target: T2, endogenous murine MerTK on bone …; test: FACS, mouse BMDM, WT minus MerTK KO
Protocol: as §1
To confirm anti-MerTK antibody binding to endogenous murine MerTK, bone marrow-derived macrophages (BMDM) were isolated from MerTK wild type (WT) and knockout (KO) mice (The Jackson Laboratory, Cat #011122) using standard protocols. Briefly, cells isolated from the bone marrow were plated in the presence of 50 ng/ml M-CSF (R&D Systems, Cat #416-ML) for seven days to allow for differentiation into macrophages. Cell staining, FACs, and MFI were performed and calculated as described above.

[2] = target: T3, mouse MerTK overexpressed on CHO cells; test: FACS, CHO-muMerTK OE cells, 10 ug/ml
Protocol: as §1

Row | Binder | MFI (human MerTK) [MFI] | MFI [1] [MFI] | MFI [2] [MFI]
1 | MTK-223 (antibody, human IgG1, V domains shown) VH: DVQLQESGPGLVKPSQSLSLTCSVTGYSITSGYYWNWIRQFPGNKLEWMGYISYDGTNNYNPSLKNRISITRDTSENQFFLKLNSVTTEDTATYFCVRGAGYWGQGTTLTVSS VL: not shown | 26800 | 316 | 234
2 | MTK-211 (antibody, human IgG1, V domains shown) VH: QVQLQQSGAELMKPGASVKLSCKATGYTFTGYWIEWVKQRPGHGLEWIGEILPGSGGSNYNEKFKGKATFTADTSSNTAYIQLSSLTTEDSAIYCCARGEPSYFSDAGFAYWGQGTLVTVSA VL: QIVLTQSPAVMSASPGEKVTMTCSASSSITYMHWYQQKPGTSPKRWIYDTSKLASGVPARFSGSGSGTSYFLTISSMEAEDVATYYCHQRSTYPYTFGGGTKLEIM | 30500 | 4490 | 5160
3 | MTK-219 (antibody, human IgG1, V domains shown) VH: QVQLQQSGADLMKPGASVKLSCKATGNTFTGYWIEWVKQRPGHGLEWIGEILTGSGSTNYNERFKGKATFTADTSSNTAYMQLSSLTTEDSAIYYCAGSYFTNSWFPYWGQGSLVTVSA VL: DIVLTQSPASLAVSLGQRATISCRASESVDSYGNSFMHWYQQKPGQPPKLLIYRAYTLESGIPARFSGSGSRTDFTLTINPVEADDVATYYCQQSNEDPRTFGGGTKLEIK | 26800 | 6180 | 11400
4 | MTK-228 (antibody, human IgG1, V domains shown) VH: QDQLQQSGPELVKPGASVKISCKASGYSFTSYYIHWVKQRPGQGLEWVGWIFPGNGNTKYNERFKGKATLTADTSSSTAYMQLSSLTSEDSAVYYCARLGLIYALDYWGQGTSVTVSS VL: DAVMTQTPLSLPVSLGDQASISCRSSQSLENSNGNTYLHWYLQKPGQSPQLLIYRVSNRFSGVLDRFSGSGSGTDFTLKISRVEAEDLGVYFCLQVTHVPFTFGSGTKLEIK | 60200 | 7370 | 17400
5 | MTK-218 (antibody, human IgG1, V domains shown) VH: QVQLQQSGPELVKPGTSVKISCKASGYSFTSYYIHWVKQRPGQGLDWIGWIFPGNRNTQYNEKFKGKATLTADTSSSTAYMQLSSLTSEDSAVYYCARLGLIYALDYWGQGTSVTVSS VL: DAVMTQTPLSLPVSLGDQASISCRSSQSLENSNGHTYLHWYLQKPGQSPQLLIYRVSNRFSGVQDRFSGSGSGTDFTLKISRVEAEDLGVYFCLQVTHVPFTFGSGTKLEIK | 49000 | 11800 | 13200

Further lines, results first:

Row | MFI (human MerTK) [MFI] | MFI [1] [MFI] | MFI [2] [MFI] | Binder
6 | 29000 | 757 | 5800 | MTK-220 (antibody, V domains shown) VH: EVQLVESGGGLVKPGGSLKLSCAASGFTFSDYGMHWVRQAPEKGLEWVAFISGGSGTIYYEDTVKGRFTISRDNAKNTLFLQMTSLRSEDTAMYYCTRGGNYFDYWGQGTTLTVSS VL: NIMLTQSPSSLAVSAGEKVTMTCKSSQSVLYSSNQKNYLAWYQQKPGQSPKLLIYWASTRESGVPDRFTGSGSGTDFTLTISNVQAEDLAVYYCHQYFSSWTFGGGTKLEIK
7 | 32200 | 2870 | 2000 | MTK-229 (antibody, human IgG1, V domains shown) VH: QVQLQQSGPELVKPGASVKISCKASGYEFSRSWMNWVKQRPGKGLEWIGRIYPGDGDTNYKGKLKGQATLTADKSSSTAYMQLSSLTFEDSAVYFCARGGGYYYDSRYEGFVYWGQGTVVTVSA VL: QIVLTQSPAIMSASPGEEVTMTCSASSSVSYMHWYQQKSGTSPKRWIYDTSKLASGVSGRFSGSGSGTSYSLTISSMEAEDAATYYCQQWSSNPPITFGAGTKLELK
8 | 40900 | 5020 | 14200 | MTK-227 (antibody, human IgG1, V domains shown) VH: EVKLVESGGGLVQPGGSLSLSCAASGFTFTDNYMTWVRQPPGKALEWLGFSRNKANGYTTEYSASVKGRFTISRDSSQSILYLQMNALRAEDSGTYYCARFPPHYYAGGYFDVWGTGTTVTVSS VL: DIQMTQSPASLSASVGETVTITCRASENIYSYLAWYQQKQGKSPQLLVYNAKTLAEGVPSRFSGSGSGTQFSLKINSLQPADFGSYYCQHYYRTPPTFGGGTKLEIK
9 | 40300 | 8450 | 12800 | MTK-213 (antibody, human IgG1, V domains shown) VH: QVQLQQPGAELVKPGASVKMSCKASGYTFTSYWITWVKQRPGQGHEWIGEIYPGIGSTNYNEKFKSKATLTVDTSSRTAYMQLSSLTSEDSAVYFCARGAYTKYYFDYWGQGTTLTVSS VL: DIVMTQSHKFMSTSVGDRVSITCKASQDVGDAVAWYQQKPGQTPKLLIYWASTRHTGVPDRFTGSGSGTDFTLTISNVQSEDLADYFCQQYSSYLMYTFGGGTKLEIK
10 | 27500 | 3680 | 4760 | MTK-222 (antibody, human IgG1, V domains shown) VH: QVQLQQSGADLMKPGASVKLSCKATGYTFTGYWIEWVKQRPGHGLEWIGEILTGSGSSNYNEKFKGKATFTADSSSNTAFMQLSSLTTEDSAIYYCAGSYYSNSWFPYWGQGSLVTVSA VL: DIVLTQSPVSLAVSLGQRATISCRASESVDSYGSSFMHWYQQKPGQPPKLLIYRASSLESGIPARFSGSGSRTDFTLTINPVETDDVATYYCQQSNEDPRTFGGGTKLEIK
11 | 49100 | 10400 | 11500 | MTK-226 (antibody, human IgG1, V domains shown) VH: QVQLQQSGPELVKPGASVKISCKASGYSFTSYYIHWVKQRPGQGLEWIGWIFPGNGNTKYNENFRGKATLTADTSSSTAYMQLSSLTSEDSAVYYCARLGLIYALDYWGQGTSVTVSS VL: DAVMTQTPLSLPVSLGDQASISCRSSQSLESSNGNTYLHWYLQKPGQSPQLLIYRVSNRFSGVLDRFSGSGSGTDFTLQISRVEAEDLGVYFCLQVTHVPFTFGSGTKLEIK
